The target in this assay is HLA-A*02:01 (Homo sapiens, UniProt P04439, D140Y/D185E/D98H/E176V/E277Q/G131W/G231S/I119V/I121R/I166T/I218V/L300P/L318F/N151K/N90K/P208A/P217A/Q86G/Q94H/R138H/R169H/T345S). Nature of the assay: MHC binding assay (UV-ligand exchange, β2m ELISA). Particulars: MHC class I binding score; binding to HLA-A*02:01 ranged by peptide exchange yield (UV-ligand exchange, β2m ELISA). The text has this: Candidate peptides for T cell based therapies according to the present invention were further tested for their MHC binding capacity (affinity). The individual peptide-MHC complexes were produced by UV-ligand exchange, where a UV-sensitive peptide is cleaved upon UV-irradiation, and exchanged with the peptide of interest as analyzed. Only peptide candidates that can effectively bind and stabilize the peptide-receptive MHC molecules prevent dissociation of the MHC complexes. To determine the yield of the exchange reaction, an ELISA was performed based on the detection of the light chain (β2m) of stabilized MHC complexes. The assay was performed as generally described in Rodenko et al. (Rodenko et al., 2006).
96 well MAXISorp plates (NUNC) were coated over night with 2 ug/ml streptavidin in PBS at room temperature, washed 4× and blocked for 1 h at 37° C. in 2% BSA containing blocking buffer. Refolded HLA-A*02:01/MLA-001 monomers served as standards, covering the range of 15-500 ng/ml. Peptide-MHC monomers of the UV-exchange reaction were diluted 100 fold in blocking buffer. Samples were incubated for 1 h at 37° C., washed four times, incubated with 2 ug/ml HRP conjugated anti-β2m for 1 h at 37° C., washed again and detected with TMB solution that is stopped with […]. Absorption was measured at 450 nm. Candidate peptides that show a high exchange yield (preferably higher than 50%, most preferred higher than 75%) are generally preferred for a generation and production of antibodies or fragments thereof, and/or T cell receptors or fragments thereof, as they show sufficient avidity to the MHC molecules and prevent dissociation of the MHC complexes.
On to “131 (FVDPNGKISL; listed as Homo sapiens) [compound 131]”, for which the Peptide exchange entry was “+++ (>50 = +++)”.
Consider “132 (FLDASGAKL; listed as Homo sapiens) [compound 132]”, for which the Peptide exchange entry is recorded as “++++ (>75% = ++++)”.
The entry for “134 (LLDEVLHTM; listed as Homo sapiens) [compound 134]” is “++++ (>75% = ++++)”; for “135 (FLDDQETRL; listed as Homo sapiens) [compound 135]” it is “+++ (>50 = +++)”.
Consider “136 (FAYDGKDYIAL; listed as Homo sapiens) [compound 136]”, for which the Peptide exchange entry is on record as “+++ (>50 = +++)”.
As for “137 (ILPSNLLTV; listed as Homo sapiens) [compound 137]”, the Peptide exchange result is listed as “+++ (>50 = +++)”.
Regarding “138 (YLDKTFYNL; listed as Homo sapiens) [compound 138]”, the Peptide exchange entry was “+++ (>50 = +++)”.
Under “139 (AVDATVNQV; listed as Homo sapiens) [compound 139]” stands “+++ (>50 = +++)”.
In the case of “140 (RLEAYLARV; listed as Homo sapiens) [compound 140]”, the Peptide exchange entry is “+++ (>50 = +++)”.
Under “141 (YVIDPIKGL; listed as Homo sapiens) [compound 141]” stands “+++ (>50 = +++)”.
The entry for “142 (FVDGSAIQV; listed as Homo sapiens) [compound 142]” is “+++ (>50 = +++)”; for “143 (ILDDSALYL; listed as Homo sapiens) [compound 143]” it is “++++ (>75% = ++++)”.
The entry for “144 (SVDEVEISV; listed as Homo sapiens) [compound 144]” is “+++ (>50 = +++)”; for “145 (TLPNIYVTL; listed as Homo sapiens) [compound 145]” it is “+++ (>50 = +++)”.
As for “146 (GVGPVPARA; listed as Homo sapiens) [compound 146]”, the Peptide exchange entry was “+++ (>50 = +++)”.
As for “147 (ILDDQTNKL; listed as Homo sapiens) [compound 147]”, the Peptide exchange result is “+++ (>50 = +++)”.
The entry for “148 (TLKDIVQTV; listed as Homo sapiens) [compound 148]” is “+++ (>50 = +++)”.
The entry for “149 (YLDTFALKL; listed as Homo sapiens) [compound 149]” is “++++ (>75% = ++++)”.
Turning to “150 (KLFPSPLQTL; listed as Homo sapiens) [compound 150]”, the Peptide exchange entry is “++++ (>75% = ++++)”.
On to “151 (FLGEPASYLYL; listed as Homo sapiens) [compound 151]”, for which the Peptide exchange result was “++++ (>75% = ++++)”.
Consider “152 (IMEDFTTFL; listed as Homo sapiens) [compound 152]”, for which the Peptide exchange entry is recorded as “++++ (>75% = ++++)”.
The entry for “153 (RLDEVSREL; listed as Homo sapiens) [compound 153]” is “+++ (>50 = +++)”; for “154 (TLGTATFTV; listed as Homo sapiens) [compound 154]” it is “++++ (>75% = ++++)”; for “156 (ALMDTDGSGKLNL; listed as Homo sapiens) [compound 156]” it is “+++ (>50 = +++)”.
For the substance “157 (HLFETISQA; listed as Homo sapiens) [compound 157]”, the Peptide exchange entry is recorded as “+++ (>50 = +++)”.
The entry for “158 (KLIPSIIVL; listed as Homo sapiens) [compound 158]” is “+++ (>50 = +++)”.
The entry for “159 (TILATVPLV; listed as Homo sapiens) [compound 159]” is “++++ (>75% = ++++)”.
Under “160 (ALDDISESI; listed as Homo sapiens) [compound 160]” stands “++++ (>75% = ++++)”; under “161 (GLCDSIITI; listed as Homo sapiens) [compound 161]”, “++++ (>75% = ++++)”; under “162 (TLDGNPFLV; listed as Homo sapiens) [compound 162]”, “+++ (>50 = +++)”.
For the substance “163 (RLMANPEALKI; listed as Homo sapiens) [compound 163]”, the Peptide exchange entry is recorded as “+++ (>50 = +++)”.
Under “164 (ALFFQLVDV; listed as Homo sapiens) [compound 164]” stands “++ (>20% = ++)”; under “165 (ALIEVLQPLI; listed as Homo sapiens) [compound 165]”, “++++ (>75% = ++++)”.
With “166 (SIIPPLFTV; listed as Homo sapiens) [compound 166]”, the Peptide exchange result is “++++ (>75% = ++++)”.
For “167 (KVLGDVIEV; listed as Homo sapiens) [compound 167]”, the Peptide exchange result is recorded as “++++ (>75% = ++++)”.
For “168 (KLLAATLLL; listed as Homo sapiens) [compound 168]”, the Peptide exchange result was “++++ (>75% = ++++)”.
The entry for “169 (TLLESIQHV; listed as Homo sapiens) [compound 169]” is “++++ (>75% = ++++)”.
The entry for “170 (KLKEAVEAI; listed as Homo sapiens) [compound 170]” is “++ (>20% = ++)”; for “171 (KVSGVILSV; listed as Homo sapiens) [compound 171]” it is “++++ (>75% = ++++)”; for “172 (FLPAGIVAV; listed as Homo sapiens) [compound 172]” it is “++++ (>75% = ++++)”.
Regarding “173 (ALDDIIYRA; listed as Homo sapiens) [compound 173]”, the Peptide exchange result is reported as “+++ (>50 = +++)”.
The entry for “174 (TLLEGLTEL; listed as Homo sapiens) [compound 174]” is “+++ (>50 = +++)”; for “175 (VLDSVDVRL; listed as Homo sapiens) [compound 175]” it is “++++ (>75% = ++++)”.
As to “176 (TLYEQEIEV; listed as Homo sapiens) [compound 176]”, the Peptide exchange entry was “++++ (>75% = ++++)”.
With “177 (ILWDTLLRL; listed as Homo sapiens) [compound 177]”, the Peptide exchange result was “++++ (>75% = ++++)”.
The entry for “178 (FAYDGKDYIA; listed as Homo sapiens) [compound 178]” is “++++ (>75% = ++++)”; for “179 (ALDDTVLQV; listed as Homo sapiens) [compound 179]” it is “+++ (>50 = +++)”; for “180 (KLAEALYIA; listed as Homo sapiens) [compound 180]” it is “+++ (>50 = +++)”.
On to “181 (GLIDLEANYL; listed as Homo sapiens) [compound 181]”, for which the Peptide exchange result is given as “++++ (>75% = ++++)”.
The entry for “182 (SVALVIHNV; listed as Homo sapiens) [compound 182]” is “++++ (>75% = ++++)”; for “183 (FLDSLIYGA; listed as Homo sapiens) [compound 183]” it is “++++ (>75% = ++++)”; for “184 (VLFSSPPVILL; listed as Homo sapiens) [compound 184]” it is “++++ (>75% = ++++)”.
On to “185 (ILADATAKM; listed as Homo sapiens) [compound 185]”, for which the Peptide exchange entry was “++++ (>75% = ++++)”.
With “186 (FLDHEMVFL; listed as Homo sapiens) [compound 186]”, the Peptide exchange entry is recorded as “++++ (>75% = ++++)”.
For the substance “187 (SLPRPTPQA; listed as Homo sapiens) [compound 187]”, the Peptide exchange entry is “+++ (>50 = +++)”.
For the substance “188 (VVVDPIQSV; listed as Homo sapiens) [compound 188]”, the Peptide exchange entry is on record as “+++ (>50 = +++)”.
The entry for “193 (ALDEPTTNL; listed as Homo sapiens) [compound 193]” is “+++ (>50 = +++)”.
Take “194 (TLDDIMAAV; listed as Homo sapiens) [compound 194]”: the Peptide exchange result is given as “+++ (>50 = +++)”.
For “195 (IAAGIFNDL; listed as Homo sapiens) [compound 195]”, the Peptide exchange entry is given as “+ (>10% = +)”.
The entry for “196 (ALEPIDITV; listed as Homo sapiens) [compound 196]” is “+++ (>50 = +++)”; for “197 (ALDSGFNSV; listed as Homo sapiens) [compound 197]” it is “++++ (>75% = ++++)”.
With “198 (EVVDKINQV; listed as Homo sapiens) [compound 198]”, the Peptide exchange entry was “+ (>10% = +)”.
Under “199 (AIHTAILTL; listed as Homo sapiens) [compound 199]” stands “++ (>20% = ++)”; under “200 (LLEEINHFL; listed as Homo sapiens) [compound 200]”, “+++ (>50 = +++)”; under “201 (SLIDRTIKM; listed as Homo sapiens) [compound 201]”, “+++ (>50 = +++)”.

These data come from US10640547B2, “Immunotherapy against melanoma and other cancers” (IMMATICS BIOTECHNOLOGIES GMBH, priority 2016, dated 2020).
